Consider 1 molecule from PMC2211816.

The data set deals with GST-KLF2 (UniProt Q60843 1-354). Put plainly: EMSA. In general terms: A gel shift assay detects complexes by their altered migration in electrophoresis.
Sequence of GST-KLF2 (Q60843 whole entry): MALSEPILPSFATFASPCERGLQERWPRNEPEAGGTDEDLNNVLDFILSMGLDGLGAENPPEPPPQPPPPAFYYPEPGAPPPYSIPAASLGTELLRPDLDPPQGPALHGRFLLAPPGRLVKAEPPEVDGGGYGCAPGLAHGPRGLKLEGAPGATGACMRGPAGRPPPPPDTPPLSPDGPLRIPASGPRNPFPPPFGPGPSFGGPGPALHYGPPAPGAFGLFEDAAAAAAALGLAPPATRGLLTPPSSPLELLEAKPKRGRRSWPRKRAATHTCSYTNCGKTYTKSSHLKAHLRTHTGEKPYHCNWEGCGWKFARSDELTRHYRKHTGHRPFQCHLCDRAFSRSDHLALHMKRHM

B1: eNOS promoter KLF site (-644 to -652) probe (dsDNA)
DNA 1: GTCATGGGGGTGTGGGGGTTCCAGGAAAT
DNA 2: ATTTCCTGGAACCCCCACACCCCCATGAC
For B1, the binding result is “binds”.
